According to the domain aggregation screens of Martell et al. (2025):

Test: soluble fraction after stress (log2 fold change); higher = more stays soluble; pooled small domains, quantitative proteomics
Details: stress: pH 4
How it was run: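 Following acid stress at pH 4, the amount of each small protein domain still soluble was measured in pooled custom libraries by high-throughput quantitative proteomics. Its fold change, on a log2 scale, is higher when more of the domain stayed soluble. This fold change is taken as a measure of aggregation propensity.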

Row | Sequence | soluble fraction (log2)
1 | HMATEWLSSKEAAQRLGVSAATLYAYVSRGLLRSEGSSGQRERRYRADDVAQLRRRREVGRKAESIAASTL | 0.142
2 | HMLETIDIFKVTGGEPFLSKDFLEILDLAIEKDLAKNITLMITTNASKFVKKILDKFIHFKRVEFTVS | -1.05
3 | HMSWEQELIEKANEIIDLYPEKRSALGPLLYLAQERDGYISDESIVEISNLVGITEVQVKSVASFYSMYK | -2.88
4 | HMYSIKEFSFEVTTPGQRLDLFLSEELIGQTRSSIQNLILKKYVTVNGQVSKASYKVKTGEFISVKIPV | 0.22
5 | HMQAATGVVTASVLNIRQGPGTNYTKVGSLLKGAQVEIVGQNGAWSKIRLKSGITGWVNSSYLKTST | -0.085
6 | HMSQQVVTDGVNLRLRYAPSPDAETYKWADGTNRHPEKGERFPYLGDIGDFYRIDYKGLVLYVSKQHTHL | -0.34
7 | HMEQISDEDTLRKMVNEVLDNNQTQLEQYKSGKTNLIGFFVGQTLKKSAGKANPSIVNKLVNEEIYI | 0.0623
8 | HMEQTIKKYVNVATLNFRSGPSTSYSIISTLSKGTKVEVISTTNNWSKIIYDGKIGYVSSEYLSKSI | ≥ 0.43
9 | HMGAGKVVDGVTYDFVFDVDVADGQPPLRLPYNRGEDVYQAAERFILRNELPATYREQIVNFIVQNTPG | -1.79
10 | HMAPPDFTTFMRNYQDMVYSTAVRLIGNETQAEDIAQEVFIKAHAHFENLRTSPSAGGWLKTVATNLSIN | -0.949
11 | HMIIIMKPNASEEAVRKVTHIIESKGLQVHLSKGSQVTIVGVVGDKTRLQGSNIEISEGVDKVVAVT | -0.0906
12 | HMVISNDEFEDYLNRATEQLVSELSSGKNPRDAVHDLALTFADQHNKSYDAYQRMADSLEARMHTL | -0.156
13 | HMSSSYTEMQLDKLKKLLEKETLLSSEKSELKSLIHDFDKIPEVVSPLIVGEYLRLKNKYIAVINSLE | -0.322
14 | HMERYFVLVIYDIVDNKKRLKLSKYLLGYGIRVQKSAFEMMITKEKYNKLIKELPTYIEEGEDSIRLY | -0.292
15 | HMAPEVTVHDGSIVVRGHVGGVTVYDESGRQIASVQSRGAVAIPVPAGHTYLYIVKPEGKPAIKVRAAH | -0.0212
16 | HMLMLTPGQVSNSLNVSTATVRRWSARFARHLSPQPPNRKRSYTPDDLATLARVRDLSASGTSLAQIDIAL | -0.29
17 | HMKVTGITDDILQRLKQQKGYLMLSDKSSPDEIYAAFGVSKKVFKQAIGTLFKQRQIIIEEQGIRLAN | 0.201
18 | HMIAASQVLRDARQRSRLTQAELGRRADVPQSVISAYESARREPSVDMLARLVAAAGFDLRIGLTP | -0.377
19 | HMTGDISRALDQLPADMRTVLILYALEKQRYEDIAQITGVSVGTVKSRLNRARQKLAAILANQREQNE | -0.101
20 | HMKGVTVDGDNITVDGEKQTLISVNKNLDGDVVSYTYRTADGKLRTSRNVEVAQEINKQQLLKSIDAQ | 0.0219
21 | HMNPGNTESFPVYQKRLGEIIQTLAGKKGQDINSPEVKELVGEYDFLTKQMFQLPDATSMVMEIATAYRN | -0.224
22 | HMAIKNKNEQLEAIIKFADLRGEFKTADIEELLSIKSSRARLLISELVKIGKLESIGSNRNRRYHIK | -0.302
23 | HMVMVVDVLKALSNNSSDKFFNTSISNAIKAQEDSQEDFVTLFGIEYEKLSPNNGLAVIFTSQ | -0.816
24 | HMRGADNAASILKEVGPHPEDGKPITVRSGRYGPYVKHGTTNATLPKDIKPEEITLDEAIALINERVAKG | -0.143
25 | HMSPFYALDEVDSFLDGVNVERLAALIARQAEQAQFLVVSHRRPMIGASTRTIGVTQARGAHTQVVGLP | -0.872
26 | HMEQKISVPALVGRDIEEILADTEVTGNFTIKEADKRVASNRPVGEVLEQDPGTGESAVKGTIITVTVSAG | -0.353
27 | HMGVMTGAEFVGNTVASVERNLIIDTLKHTMGNRTTAANILGISIRTLRNKLKQYQNEGFDIPE | 0.185
28 | HMQEDKSKYLFQRGTAITVLRPAGIVRIGKERVDAVSNGSYIDRGVAVRVIEVEGTRVVVEPVPE | -0.151

Row | Sequence | soluble fraction (log2)
29 | HMKEVVKVTITPSEKLKSQYPDALVSIDGKFYDLGILNNPVEFYMDKDHKISIIWSTAELVESFRI | -0.248
30 | HMSSLKKISIDELSPGMYVHSIVEQKGSVKIKSQGKVLKQAVVDALRKRGVKTLLIDLSKQFNPETGEP | 0.346
31 | HMNGLNISYRMDGENVVETIVFPDATMIRTIAPNGVMTIKTIEDGSVSTSELKADYKLYKKIYESQY | -0.401
32 | HMAKDEYGLTSNQRAFADEYIRNKGNATQAYLFAYPHIKKENTAAVNASRLLRNAKVSKYIADRTKEIL | -0.146
33 | HMGSLQPLLLAAIDALQTHIRSGLPFRVEERLAELDQFRTELQNGSVPPQRGVNRLWAFYEDEFRL | -0.386
34 | HMSSTSTKTQNIVHIVKSGETLSAIASKYGVSVDNIKKWNNLSSDKLSIGQKLKINPTTQTSS | -0.186
35 | HMSQIANLLLSKNIKVNNQNIIYYETVLKYLPNNEKKEFFINAMKNNIYFTEEEIKNFGNIFN | -0.786
36 | HMAVVAPLAGSVARVLVADGDEIEAGQVLLVLEAMKMETEITAPKAGKVGAILVGKGDSVQGGQGLR | -0.249
37 | HMGPASTGAHQLGLKPGDEVTHRAWGEGVVTSTTGEGDRAEAVVDFDAVGEKRLLLAWAPLER | -0.705
38 | HMSMEKNWVPSEDVIEILTRAGMNENFIRELIPEFIIYWSERKDVLISYDSKFIEHARLKWAQHNAE | 0.0608
39 | HMSNLTDLVSAKEAEVYLHFLESGSTAGMTEAELRAVRKIEELIQSNKIDYNGILRIRNETVK | -0.137
40 | HMSESLRDLVLSLIPEDGSTIGNRALITRLREDLPDLTDEDYHEVRDQLIAEGVLAKGRGQGGSVARANG | 0.0415
41 | HMSLIDYLNELMNEKNITVAQVAKNSGIGEYVYKIFNGERNAKRDTLVAISFGMHLNFEETQLLLRIA | -0.98
42 | HMRVSNADALIGRRGKANSDIRRGDYGWVAIDGDVWKSKLADDITEDIPMGAIVEVLSRDSIILTVKP | -1.08
43 | HMRITTKNYFKAISEVGFENLPEVLKKSHLVIEEKTNKGNDWGIYENDAEAKKVFDLAFDKLEEFIDRKED | -0.203
44 | HMQMEDTDALLQVAKEVVAENQDTVEAYLGGREKAFASLIGAAMKKTRGKANPKVIRQLILDLIQ | -0.432
45 | HMEDSAKRHQIMDGARRVFMDLGFDGASMNEIARAAGVSKGTLYVYFTDKNRLFEAIVEQESL | -1.15
46 | HMFGSKDVKRAIEDYAAAMSSQPRALSAPQRKVLIRHLATSGLLQLRGAAKIVADELGISRASVYNALKV | 0.193
47 | HMPMHPEDLKKLVSIEMPFGKHKGRIIADLPGNYLNWFAREGFPPGEIGRLLQLMQEIDHNGLSDLLKPLR | -0.645
48 | HMTYNIPEHYQTIDVKEYVRKLVSDGDSDQIGRVEMELTEFETRNLFPVLKVLIYIIDTMRK | -1.73
49 | HMVSSVAAISQMIDEKDRYTSEHSHRVAEYARLIGAHMGFAGEELDSLYRSALLHDIGKIAVPDAILNK | -0.417
50 | HMSEQSEALRTGLDQLPINQRTALTLFHLHELNQSEVAKIMNISVGAVESLLFRGRQKMKQLLTSD | -0.157
51 | HMKSLPQKLLAYLESQGLTRDEAGEFVKQGLKITSNDVDQIQLLLANTEVIDIKLQEFIAQK | -0.549
52 | HMGVSAGQVRGLIRNLIAGEDKSKPLSDLALERELEKREIRISRRTVAKYRAELGIPNSDQRRYLP | 0.0779
53 | HMGALSLDMLFDRFDALQEQSMGDKTEGGQELRGMIRTFIEQEKLDIRVTRTTTNAALLEMIEKEMQG | 0.0204
54 | HMDRRSTTLQDIYTRIDAEEISEALELIPKLGEIEFEQNRAEIAEAAGVRPAVLDKLRKQAAKQENNKK | -0.216
55 | HMDPTIRRGELIDAASRLFLSKGYAATSVRDILDEVGNRTASPSVFYYYFKSKEEIYQAVLRRHSE | -0.485
